Test results: publication PMC9259484 (Nature, 2022)

B1: C118 (antibody, V domains shown)
VH: QVQLVESGGGVVQPGRSLRLSCAASGFTFSNYAMHWVRQAPGKGLEWVAVISYDGSNKYYADSVKGRFTISRDNSKNTLYLQMNSLRAEDTAIYYCASGYTGYDYFVRGDYYGLDVWGQGTTVTVSS
VL: QPVLTQSPSASASLGASVKLTCTLSSGHSSYAIAWHQQQPEKGPRYLMKLNTDGSHSKGDGIPDRFSGSSSGAERYLTISSLQSEDEADYYCQTWGTGILVFGGGTKLTVL
B2: C105 (antibody, V domains shown)
VH: QVQLVESGGGLIQPGGSLRLSCAASGFTVSSNYMSWVRQAPGKGLEWVSVIYSGGSTYYADSVKGRFTISRDNSKNTLYLQMNSLRAEDTAVYYCARGEGWELPYDYWGQGTLVTVSS
VL: QSALTQPPSASGSPGQSVTISCTGTSSDVGGYKYVSWYQQHPGKAPKLMIYEVSKRPSGVPDRFSGSKSGNTASLTVSGLQAEDEADYYCSSYEGSNNFVVFGGGTKLTVL

Target: SARS-CoV-2 Wuhan-Hu-1 receptor binding domain (RBD), Spike (S) protein residues 319-539 (SARS-CoV-2, UniProt P0DTC2)
Test: BLI
Settings: both partners purified

Row | Binder | binding result
1 | B1 | binds
2 | B2 | binds
